US20210380994A1, “LACTOCOCCUS LACTIS EXPRESSION SYSTEM FOR DELIVERING PROTEINS EFFICACIOUS FOR THE TREATMENT OF EPITHELIAL BARRIER FUNCTION DISORDERS” (Second Genome, Inc., priority 2018, published 2021)

B1: SG-11: Roseburia hominis protein comprising SEQ ID NO:3; tested as SEQ ID NO:5, SEQ ID NO:7 or FLAG-tagged SEQ ID NO:9 (protein, listed as Rosburia hominis)
chain: LEGEESVVYVGKKGVIASLDVETLDQSYYDETELKSYVDAEVEDYTAEHGKNAVKVESLKVEDGVAKLKMKYKTPEDYTAFNGIELYQGKVVASLAAGYVYDGEFARVEEGKVVGAATKQDIYSEDDLKVAIIRANTDVKVDGEICYVSCQNVKLTGKDSVSIRDGYYLETGSVTASVDVTGQESVGTEQLSGTEQMEMTGEPVNADDTEQTEAAAGDGSFETDVYTFIVYK
B2: SG-11V5: variant of SEQ ID NO:7 with N53S, N83S, C147V, C151S (protein)
chain: MLEGEESVVYVGKKGVIASLDVETLDQSYYDETELKSYVDAEVEDYTAEHGKSAVKVESLKVEDGVAKLKMKYKTPEDYTAFSGIELYQGKVVASLAAGYVYDGEFARVEEGKVVGAATKQDIYSEDDLKVAIIRANTDVKVDGEIVYVSSQNVKLTGKDSVSIRDGYYLETGSVTASVDVTGQESVGTEQLSGTEQMEMTGEPVNADDTEQTEAAAGDGSFETDVYTFIVYK
modifications: Artificial variant of SG-11 (N53S, N83S, C147V, C151S)

Tests used:
[1] = post-translational modification (PTM) analysis by LC/MS/MS peptide mapping; format: physicochemical; conditions: non-stress
Procedure: Studies were performed to identify residues of SG-11 particularly susceptible to PTMs using LC/MS/MS. The analysis was performed by LakePharma (Belmont, Calif.) to 1) confirm the amino acid sequence of SG11 (SEQ ID NO-9), and 2) determine any post-translational modification which could lead to reduced biological activity and immunogenicity, particularly deamidation and oxidation.
For peptide mapping and PTM analysis, samples were treated with DTT and IAA, followed by trypsin digestion. The digested sample was then analyzed by Waters ACQUITY UPLC coupled to Xevo G2-XS QTOF mass spectrometer using a Protein BEH C18 column.

mice treated with DSS = assay: DSS model of colitis with SG-11V5 protein and SG-11V5-expressing L. lactis (Example 22); format: in vivo
Procedure: Specifically, the mice in this Example 22 were treated with DSS, a chemical known to induce intestinal epithelial damage and thereby reduce intestinal barrier integrity and function. These DSS mice were then administered an L. lactis strain expressing SG-11V5 as described above, or a positive or negative control treatment.
In this study, 3 independent groups of mice (10 mice per group) were used to test the 3 different L. lactis strains: Group 1: L. lactis harboring parent pNZ8124 vector, Group 2: L. lactis harboring inducible SG-11V5 vector (PnisA:otsBA::PnisA:SPusp45:SG-11V5), and Group 3: L. lactis harboring constitutive SG-11V5 vector (PnisA:otsBA::Pusp45:SPusp45:SG-11V5). Each of the strains in Groups 1-3 had been grown until the cultures reached an OD600 of about 0.5, induced with nisin for 2 hours, concentrated to about 10^11 cells/mL in PBS with glycerol, and stored at −80° C. Cells were analyzed by Western blot to confirm protein expression. An additional 4 groups of mice (n=10 per group) were included as controls: Group 4: untreated; Group 5: treated p.o. with vehicle only; Group 6: intraperitoneal (i.p.) administration of Gly2-GLP2 (50 nmoles/kg); and Group 7: i.p. administration of SG-11V5 protein (160 nmoles/kg (4.0 mg/kg).
I.p. administration of Gly2-GLP2 and SG-11V5 was done twice per day, with i.p. administration to the right abdomen in the morning and to the left abdomen in the evening for 6 consecutive days (Day 0-Day 5) and then to the right abdomen on Day 6 prior to euthanasia and tissue recovery. Gly2-GLP2 (CPC Scientific Peptide Company) was prepared by dissolving in PBS(Corning 21-040-CV) with 5 mM NaOH to a concentration of 5 mg/mL Aliquots were stored at −80C prior to use.
Following a 7-day acclimation period, treatments wore initiated in the morning (AM) of Day 0 with i.p. administration of Gly2-GLP2 or purified SG-11V5 protein as a positive control, oral gavage of strain vehicle only (phosphate buffered saline (PBS; Corning 21-040-CV)), or with oral gavage administration of the appropriate L. lactis expression strain.
Fresh drinking water treated with 2.5% DSS was prepared and provided to all the mice on Days 0, 2, and 4 about 6 hours after AM dosing. […] Also, treatments were continued with the L. lactis strains described above once a day (q.d) in the morning with p.o. administration at 10^10 CFU of the strains comprising i) pNZ8124 vector, ii) inducible SG-11V5 vector, or iii) constitutive SG-11V5 vector.
On Day 6, only AM dosing was performed for intraperitoneal (i.p.) injection of protein and oral gavage (p.o) administration of L. lactis strains expressing SG-11V5 protein. Mice were fasted for 4 hours and then orally gavaged with 600 mg/kg 4KDa dextran labeled with fluorescin isothiocyanate (FITC) [4KDa-FITC]. About 50 minutes after the 4KDa-FITC gavage, mice were anesthetic with ketamine (ket)/xylazine (xyl) drug. Mice were injected with 10 ml/kg i.p of 10 mg/ml ketamine and 1 mg/ml xylazine (100 ul per 10 g body weight). One hour after administering 4KDa-FITC and about 10 minutes after ketamine/xylazine anesthesia, mice were euthanized, and blood and tissues were collected to assess barrier function and DSS model readouts. […]
Upon completion of the DSS models above, LBP levels were measured as an inflammation centric readout of barrier function following the protocol detailed above in Examples 7 and 13. […] LBP levels were measured in serum using a commercially available ELISA Kit (Enzo Life Sciences). […]

[2] = normalized to corresponding precursor
[3] = normalized to total peptide ion intensity
[4] = SG-11V5 protein 160 nmoles/kg i.p. b.i.d.

Molecule | Deamidation N83 (peptide TPEDYTAFNGIELYQGK), % peptide [1, 2] | Deamidation N137 (peptide ANTDVK), % peptide [1, 2] | Deamidation N153 (peptide VDGEICYVSCQNVK), % peptide [1, 2] | Deamidation N53 (peptide NAVK), % peptide ([1]; normalized to total intensity of corresponding precursor with or without modification) | Deamidation N53 (peptide NAVK), % total ion [1, 3] | Deamidation N83 (peptide TPEDYTAFNGIELYQGK), % total ion [1, 3] | Deamidation N137 (peptide ANTDVK), % total ion [1, 3] | Deamidation N153 (peptide VDGEICYVSCQNVK), % total ion [1, 3] | Oxidation M1 (peptide MLEGEESVVYVGK), % total ion [1, 3] | cleavage by trypsin (SDS-PAGE) (trypsin) | body weight (mice treated with DSS; SG-11V5 160 nmoles/kg i.p. b.i.d., day 6) | colon length (mice treated with DSS; [4]) | colon weight-to-length ratio (mice treated with DSS; [4]) | gross pathology (clinical score 0-5) (mice treated with DSS; SG-11V5 protein 160 nmoles/kg i.p. b.i.d., p<0.0001) | 4KDa-FITC dextran translocation across the epithelial barrier (mice treated with DSS; SG-11V5 protein 160 nmoles/kg i.p. b.i.d., vs DSS + vehicle)
B1 | 3.77% | 1.03% | 0.2% | 7.84% | 0.01% | 0.25% | 0.25% | 0.01% | <0.01% | a predominant band is generated in the presence of trypsin |  |  |  |  | 
B2 |  |  |  |  |  |  |  |  |  |  | significant improvement in body weight | significant increase in the colon length | significant decrease in the colon weight-to-length ratio | significant improvement in gross pathology | non-significant increase
